Laboratory results as given in IntAct's records for PubMed 30058071.

B1: SH3 and multiple ankyrin repeat domains protein 2 (Rattus norvegicus (Rat)), Q9QX74-7 (parent)
chain: MPRSPTSSEDEMAQSFSDYSVGSESDSSKEETIYDTIRATTEKPGGVKMEDLQGNTLVIRVVIQDLQQTKCIRFNPDATVWVAKQRILCTLNQGLKDVLNYGLFQPASNGRDGKFLDEERLLREYPQPMGQGVPSLEFRYKKRVYKQSNLDEKQLARLHTKTNLKKFMDHTQHRSVEKLVKLLDRGLDPNFHDLETGETPLTLAAQLDGSMEVIKALRNGGAHLDFRSRDGMTALHKAARMRNQVALKTLLELGASPDYKDSYGLTPLYHTAIVGGDPYCCELLLHEHASVCCKDENGWHEIHQACRYGHVQHLEHLLFYGADMSAQNASGNTALHICALYNQDSCARVLLFRGGDKELKNYNSQTPFQVAIIAGNFELAEYIKNHKETDIVPFREAPAYSNRRRRPPNTLAAPRVLLRSNSDNNLNAGAPEWAVCSAATSHRSLSPQLLQQTPSKPDGATKSLGSYAPGPRSRSPSLNRLGGAGEDGKRPQPPHWHVGSPFTPGANKDSLSTFEYPGPRRKLYSAVPGRLFVAIKPYQPQVDGEIPLHRGDRVKVLSIGEGGFWEGSARGHIGWFPAECVEEVQCKPRDSQAETRADRSKKLFRHYTVGSYDSFDAASDCIIEDKTVVLQKKDNEGFGFVLRGAKADTPIEEFTPTPAFPALQYLESVDEGGVAWQAGLRTGDFLIEVNNENVVKVGHRQVVNMIRQGGNHLVLKVVTVTRNLDPDDTARKKAPPPPKRAPTTALTLRSKSMTAELEELDKPEEIVPASKPSRTAENVAIESRVATIKQRPTSRCFPAASDVNSVYERQGIAVMTPTVPGSPKGPFLGLPRGTMRRQKSIDSRIFLSGITEEERQFLAPPMLKFTRSLSMPDTSEDIPPPPQSVPPSPPPPSPTTYNCPRSPTPRVYGTIKPAFNQNPVAKVPPATRSDTVATMMREKGMFYRRELDRFSLDSEDVYSRSPAPQAAFRTKRGQMPENPYSEVGKIASKAVYVPAKPARRKGMLVKQSNVEDSPEKTCSIPIPTIIVKEPSTSSSGKSSQGSSMEIDPQATEPGQLRPDDSLTVSSPFAAAIAGAVRDREKRLEARRNSPAFLSTDLGDEDVGLGPPAPRMQPSKFPEEGGFGDEDETEQPLLPTPGAAPRELENHFLGGGEAGAQGEAGGPLSSTSKAKGPESGPAAALKSSSPASPENYVHPLTGRLLDPSSPLALALSARDRAMQESQQGHKGEAPKADLNKPLYIDTKMRPSVESGFPPVTRQNTRGPLRRQETENKYETDLSKDRRADDKKNMLINIVDTAQQKSAGLLMVHTVDIPVAGPPLEEEEDREDGDTKPDHSPSTVPEGVPKTEGALQISAAPEPAAAPGRTIVAAGSVEEAVILPFRIPPPPLASVDLDEDFLFTEPLPPPLEFANSFDIPDDRAASVPALADLVKQKKSDTPQPPSLNSSQPANSTDSKKPAGISNCLPSSFLPPPESFDAVTDSGIEEVDSRSSSDHHLETTSTISTVSSISTLSSEGGESMDTCTVYADGQAFVVDKPPVPPKPKMKPIVHKSNALYQDTLPEEDTDGFVIPPPAPPPPPGSAQAGVAKVIQPRTSKLWGDVTEVKSPILSGPKANVISELNSILQQMNRGKSVKPGEGLELPVGAKSANLAPRSPEVMSTVSGTRSTTVTFTVRPGTSQPITLQSRPPDYESRTSGPRRAPSPVVSPTELSKEILPTPPSAAAASPSPTLSDVFSLPSQSPAGDLFGLNPAGRSRSPSPSILQQPISNKPFTTKPVHLWTKPDVADWLESLNLGEHKETFMDNEIDGSHLPNLQKEDLIDLGVTRVGHRMNIERALKQLLDR
B2: SH3 and multiple ankyrin repeat domains protein 3 (Homo sapiens), Q9BYB0-1 (parent)
chain: MQLSRAAAAAAAAPAEPPEPLSPAPAPAPAPPGPLPRSAADGAPAGGKGGPGRRAESPGAPFPGASGPGPGPGAGMDGPGASAVVVRVGIPDLQQTKCLRLDPAAPVWAAKQRVLCALNHSLQDALNYGLFQPPSRGRAGKFLDEERLLQEYPPNLDTPLPYLEFRYKRRVYAQNLIDDKQFAKLHTKANLKKFMDYVQLHSTDKVARLLDKGLDPNFHDPDSGECPLSLAAQLDNATDLLKVLKNGGAHLDFRTRDGLTAVHCATRQRNAAALTTLLDLGASPDYKDSRGLTPLYHSALGGGDALCCELLLHDHAQLGITDENGWQEIHQACRFGHVQHLEHLLFYGADMGAQNASGNTALHICALYNQESCARVLLFRGANRDVRNYNSQTAFQVAIIAGNFELAEVIKTHKDSDVVPFRETPSYAKRRRLAGPSGLASPRPLQRSASDINLKGEAQPAASPGPSLRSLPHQLLLQRLQEEKDRDRDADQESNISGPLAGRAGQSKISPSGPGGPGPAPGPGPAPPAPPAPPPRGPKRKLYSAVPGRKFIAVKAHSPQGEGEIPLHRGEAVKVLSIGEGGFWEGTVKGRTGWFPADCVEEVQMRQHDTRPETREDRTKRLFRHYTVGSYDSLTSHSDYVIDDKVAVLQKRDHEGFGFVLRGAKAETPIEEFTPTPAFPALQYLESVDVEGVAWRAGLRTGDFLIEVNGVNVVKVGHKQVVALIRQGGNRLVMKVVSVTRKPEEDGARRRAPPPPKRAPSTTLTLRSKSMTAELEELASIRRRKGEKLDEMLAAAAEPTLRPDIADADSRAATVKQRPTSRRITPAEISSLFERQGLPGPEKLPGSLRKGIPRTKSVGEDEKLASLLEGRFPRSTSMQDPVREGRGIPPPPQTAPPPPPAPYYFDSGPPPAFSPPPPPGRAYDTVRSSFKPGLEARLGAGAAGLYEPGAALGPLPYPERQKRARSMIILQDSAPESGDAPRPPPAATPPERPKRRPRPPGPDSPYANLGAFSASLFAPSKPQRRKSPLVKQLQVEDAQERAALAVGSPGPGGGSFAREPSPTHRGPRPGGLDYGAGDGPGLAFGGPGPAKDRRLEERRRSTVFLSVGAIEGSAPGADLPSLQPSRSIDERLLGTGPTAGRDLLLPSPVSALKPLVSGPSLGPSGSTFIHPLTGKPLDPSSPLALALAARERALASQAPSRSPTPVHSPDADRPGPLFVDVQARDPERGSLASPAFSPRSPAWIPVPARREAEKVPREERKSPEDKKSMILSVLDTSLQRPAGLIVVHATSNGQEPSRLGGAEEERPGTPELAPAPMQSAAVAEPLPSPRAQPPGGTPADAGPGQGSSEEEPELVFAVNLPPAQLSSSDEETREELARIGLVPPPEEFANGVLLATPLAGPGPSPTTVPSPASGKPSSEPPPAPESAADSGVEEADTRSSSDPHLETTSTISTVSSMSTLSSESGELTDTHTSFADGHTFLLEKPPVPPKPKLKSPLGKGPVTFRDPLLKQSSDSELMAQQHHAASAGLASAAGPARPRYLFQRRSKLWGDPVESRGLPGPEDDKPTVISELSSRLQQLNKDTRSLGEEPVGGLGSLLDPAKKSPIAAARLFSSLGELSSISAQRSPGGPGGGASYSVRPSGRYPVARRAPSPVKPASLERVEGLGAGAGGAGRPFGLTPPTILKSSSLSIPHEPKEVRFVVRSVSARSRSPSPSPLPSPASGPGPGAPGPRRPFQQKPLQLWSKFDVGDWLESIHLGEHRDRFEDHEIEGAHLPALTKDDFVELGVTRVGHRMNIERALRQLDGS

Variants of: B1
Conditions: with cac1d_rat Cacna1d

| Variant | effect of a mutation on the interaction |
| --- | --- |
| S558D | with no effect |
| S558N | decreasing interaction strength |

Variants of: B2
Conditions: with cac1d_human CACNA1D

| Variant | effect of a mutation on the interaction |
| --- | --- |
| K555Y | with no effect |
